Results published in patent publication US20260116983A1.

Columns and labels:
[1] = molecular target: human uPAR (recombinant protein used in ELISA and BLI) (human) (UniProt Q03405); assay: ELISA, plate-coated human uPAR
[2] = molecular target: human uPAR displayed on the surface of MDA-MB-231 cells (human) (UniProt Q03405); assay: flow cytometry (FACS) on MDA-MB-231 cells
[3] = molecular target: human uPAR displayed on the surface of MDA-MB-231 cells (human) (UniProt Q03405); assay: cell-based or functional assay

Sequence of human uPAR displayed on the surface of MDA-MB-231 cells (human) (Q03405 23-305): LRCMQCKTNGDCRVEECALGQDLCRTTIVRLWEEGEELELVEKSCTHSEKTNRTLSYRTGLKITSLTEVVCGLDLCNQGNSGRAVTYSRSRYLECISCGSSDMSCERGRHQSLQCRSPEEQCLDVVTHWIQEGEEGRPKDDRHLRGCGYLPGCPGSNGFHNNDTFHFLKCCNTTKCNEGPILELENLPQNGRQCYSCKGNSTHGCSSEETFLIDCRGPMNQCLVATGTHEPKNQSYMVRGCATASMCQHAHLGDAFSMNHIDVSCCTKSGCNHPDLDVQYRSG
Sequence of human uPAR (recombinant protein used in ELISA and BLI) (human) (Q03405 23-305 limits assumed): as the sequence (Q03405 23-305) above

B1: 2G10 (antibody, from another filing, V domains shown)
VH: QVQLQQSGPGLVKPSQTLSLTCAISGDSVSSNSAAWNWIRQSPSRGLEWLGRTYYRSKWYNDYAVSVKSRIIINPDTSKNQFSLQLNSVTPEDTAVYYCARDPGGPLDDSFDIWGQGTMVTVSS
VL: DVVMTQSPLSLPVTPGEPASISCRSSQSLLRSNGYNYLDWYLQKPGQSPQLLIYLGSIRASGVPDRFSGSGSGTDFTLRISRVEAEDVGVYYCMQALQTPFTFGQGTKLEIKR
- EC50 [1]: 0.26 nM
- Cellular recognition Max % [2]: 2200%
- EC50 [2]: 16.6 nM
- ADC Cytotoxicity Max % [3]: 4.9%
- ADCC NK-92 EC50 [3]: 22.5 nM
- ADCC NK-92 Max % [3]: 33.9%
- ADCC PBMCs EC50 [3]: 8.65 nM
- ADCC PBMCs Max % [3]: 65.5%
- Adhesion blocking EC50 [3]: 3500 nM

B2: 3C6 (antibody, from another filing, V domains shown)
VH: QVQLQQWGAGLLKPSETLSLTCAVYGGSFSGYYWSWIRQPPGKGLEWIGEINHSGSTNYNPSLKSRVTISVDTSKNQFSLKLSSVTAADTAVYYCARGRRFGDFDYWGQGTLVTVSS
VL: QPVLTQPPSVSVAPGKTARITCGGNNIGSKSVHWYQQKPGQAPVLVVYDDSDRPPGIPERFSGSNSGNTATLTISRVEAGDEADYYCQVWDSSSDHSPFGTGTKVTVLG
- EC50 [1]: 0.28 nM
- Cellular recognition Max % [2]: 971%
- EC50 [2]: 292 nM
- ADC Cytotoxicity Max % [3]: 1.42%
- Adhesion blocking EC50 [3]: 810 nM
